“And” between values parts separate entries of the source, which are not always exact repeats. Equal entries are not always repeated.
How the values were obtained:
Test in all cases: cell-based or functional assay
[1] = target: HIV-1 Env of pseudovirus 92TH021 (HIV-1)
[2] = target: HIV-1 Env of pseudovirus MGRM-C-26 (HIV-1)
[3] = target: HIV-1 Env of pseudovirus JRCSF (HIV-1) (UniProt P20871)

Binder	Polyclonal Transfectant Neutralization Index [1]	Primary Neutralization Index (B cell culture supernatant) [1]	Polyclonal Transfectant Neutralization Index [2]	Primary Neutralization Index (B cell culture supernatant) [2]	Polyclonal Transfectant Neutralization Index [3]	Primary Neutralization Index (B cell culture supernatant) [3]
PGT-125 (B cell culture well 5123_A6) (antibody, V domains shown) VH: QSQLQESGPRLVEASETLSLTCNVSGESTGACTYFWGWVRQAPGKGLEWIGSLSHCQSFWGSGWTFHNPSLKSRLTISLDTPKNQVFLKLTSLTAADTATYYCARFDGEVLVYNHWPKPAWVDLWGRGIPVTVSS VL: QSALTQPPSASGSPGQSITISCNGTATNFVSWYQQFPDKAPKLIIFGVDKRPPGVPDRFSGSRSGTTASLTVSRLQTDDEAVYYCGSLVGNWDVIFGGGTTLTVL	50.6	133	88.3	512	119	1730
PGT-126 (B cell culture well 5141_B17) (antibody, V domains shown) VH: QPQLQESGPGLVEASETLSLTCTVSGDSTAACDYFWGWVRQPPGKGLEWIGGLSHCAGYYNTGWTYHNPSLKSRLTISLDTPKNQVFLKLNSVTAADTAIYYCARFDGEVLVYHDWPKPAWVDLWGRGTLVTVSS VL: QSALTQPPSASGSPGQSISISCTGTSNRFVSWYQQHPGKAPKLVIYGVNKRPSGVPDRFSGSKSGNTASLTVSGLQTDDEAVYYCSSLVGNWDVIFGGGTKLTVL	2.74	2.3	102	654	102	1410
PGT-127 (B cell culture well 5145_B14) (antibody, V domains shown) VH: QPQLQESGPGLVEASETLSLTCTVSGDSTGRCNYFWGWVRQPPGKGLEWIGSLSHCRSYYNTDWTYHNPSLKSRLTISLDTPKNQVFLRLTSVTAADTATYYCARFGGEVLVYRDWPKPAWVDLWGRGTLVVTVS VL: QSALTQPPSASGSPGQSITISCTGTSNNFVSWYQQYPGKAPKLVIYEVNKRPSGVPDRFSGSKSGSTASLTVSGLQADDEGVYYCSSLVGNWDVIFGGGTKLTVL	0.94	1	2.62	86.9	1.61	31.1
PGT-128 (B cell culture well 5114_A19) (antibody, V domains shown) VH: QPQLQESGPTLVEASETLSLTCAVSGDSTAACNSFWGWVRQPPGKGLEWVGSLSHCASYWNRGWTYHNPSLKSRLTLALDTPKNLVFLKLNSVTAADTATYYCARFGGEVLRYTDWPKPAWVDLWGRGTLVTVSS VL: QSALTQPPSASGSPGQSITISCTGTSNNFVSWYQQHAGKAPKLVIYDVNKRPSGVPDRFSGSKSGNTASLTVSGLQTDDEAVYYCGSLVGNWDVIFGGGTKLTVL	10	6.6	32.2	17.1	136	77.5
PGT-130 (B cell culture well 5147_N6) (antibody, V domains shown) VH: QVQLQESGPGLVKPAETLSLTCSVSGESINTGHYYWGWVRQVPGKGLEWIGHIHYTTAVLHNPSLKSRLTIKIYTLRNQITLRLSNVTAADTAVYHCVRSGGDILYYYEWQKPHWFSPWGPGIHVTVSS VL: QSALTQPPSASGSLGQSVTISCNGTSSDIGGWNFVSWYQQFPGRAPRLIIFEVNKRPSGVPGRFSGSKSGNSASLTVSGLQSDDEGQYFCSSLFGRWDVVFGGGTKLTVL	4.2	538	1.05	3	1.24	19.3
PGT-131 (B cell culture well 5136_H1) (antibody, V domains shown) VH: QVQLQESGPGLVKPSETLSLTCTVSGDSINTGHHYWGWVRQVPGKGPEWIAHIHYNTAVLHNPALKSRVTISIFTLKNLITLSLSNVTAADTAVYFCVRSGGDILYYIEWQKPHWFYPWGPGILVTVSS VL: QSALTQPPSASGSLGQSLTISCSGTGSDIGSWNFVSWYQQFPGRAPNLIIFEVNRRRSGVPDRFSGSKSGNTASLTVSGLRSEDEAEYFCSSLSGRWDIVFGGGTKVTVL	–	354	–	1.2	–	6.2
PGT-135 (B cell culture wells 5343_B8 and 5344_E16) (antibody, V domains shown) VH: QLQMQESGPGLVKPSETLSLSCTVSGDSIRGGEWGDKDYHWGWVRHSAGKGLEWIGSIHWRGTTHYKESLRRRVSMSIDTSRNWFSLRLASVTAADTAVYFCARHRHHDVFMLVPIAGWFDVWGPGVQVTVSS VL: EIVMTQSPDTLSVSPGETVTLSCRASQNINKNLAWYQYKPGQSPRLVIFETYSKIAAFPARFVASGSGTEFTLTINNMQSEDVAVYYCQQYEEWPRTFGQGTKVDIK	–	–	–	6.5 and 3.6	–	1.8 and 1.5
